Assay results from patent US20260193638A1.
Each block holds one binder with its values, some of them ahead of it.

Assays:
[1] = target: T1, Thermus thermophilus SlyD-IGF-1 (74-90) chimeric polypeptide; assay: ELISA, undiluted culture supernatant
T1 sequence: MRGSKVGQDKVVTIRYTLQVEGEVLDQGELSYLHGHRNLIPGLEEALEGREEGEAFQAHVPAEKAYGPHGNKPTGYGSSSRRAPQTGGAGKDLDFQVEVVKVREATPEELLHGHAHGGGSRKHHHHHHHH

[2] = target: recombinant native human IGF-1 (human) (UniProt P05019); assay: ELISA, undiluted culture supernatant
[3] = target: T2, recombinant wild-type Thermus thermophilus SlyD (His6 tagged control) (Thermus thermophilus); assay: ELISA, undiluted culture supernatant
T2 sequence: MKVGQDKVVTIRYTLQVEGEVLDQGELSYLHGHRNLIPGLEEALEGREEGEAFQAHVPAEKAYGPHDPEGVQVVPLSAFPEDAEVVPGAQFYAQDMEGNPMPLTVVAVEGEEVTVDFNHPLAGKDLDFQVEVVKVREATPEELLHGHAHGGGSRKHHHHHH

[4] = target: T1, Thermus thermophilus SlyD-IGF-1 (74-90) chimeric polypeptide; assay: SPR at 25 °C, antibody captured, antigen in solution
[5] = target: recombinant native human IGF-1 (human) (UniProt P05019); assay: as above
[6] = target: recombinant native human IGF-1 (human) (UniProt P05019); assay: SPR at 37 °C, antibody captured, analyte in solution
[7] = target: T1, Thermus thermophilus SlyD-IGF-1 (74-90) chimeric polypeptide; assay: as above
[8] = target: recombinant native human IGF-1 (human) (UniProt P05019); assay: as above; remark: listed apart in the source

reactivity [1]: 2150 mE
reactivity [2]: 2430 mE
reactivity [3]: 32 mE
Kd [4]: 10 pM
MR [4]: 2
koff [4]: 1e-05 s⁻¹
kon [4]: 710000 M⁻¹ s⁻¹
t/2-diss [4]: 1110 min
Kd [5]: 10 pM
MR [5]: 2
koff [5]: 2.1e-05 s⁻¹
kon [5]: 2e+06 M⁻¹ s⁻¹
t/2-diss [5]: 560 min
Ka [6]: 2.2e+10 M⁻¹
Kd [6]: 46 pM
koff [6]: 0.00014 s⁻¹
kon [6]: 3.1e+06 M⁻¹ s⁻¹
t/2-diss [6]: 81 min
koff [7]: 1e-05 s⁻¹
t/2-diss [7]: 1160 min
koff [8]: 1e-05 s⁻¹
t/2-diss [8]: 1160 min
B1: monoclonal antibody M-11.11.17 (antibody, from a related filing, V domains shown)
VH: QVQLQQSGAELVRPGSSVKISCKASGYAFSNLWMNWVKQRPGQGLEWIGQIYPGDGDTNYYGDFKGKATLTADSSSSTAYMQLSRLTSEDSAVYFCARIGYYGMDYWGQGTSVTVSS
VL: DVVLTQTPLSLPVNIGDEASISCKSTKSLLSSDGLTYLDWYLQKPGQSPQVLIYLVSNRFSGVPDRFSGSGSGTDFTLKISRVEAEDLGVYYCFQSNYLPTFGAGTKLELK

reactivity [1]: 1900 mE
reactivity [2]: 2110 mE
reactivity [3]: 36 mE
Kd [4]: 2400 pM
MR [4]: 1.8
koff [4]: 0.00069 s⁻¹
kon [4]: 290000 M⁻¹ s⁻¹
t/2-diss [4]: 17 min
Kd [5]: 1600 pM
MR [5]: 1.7
koff [5]: 0.0015 s⁻¹
kon [5]: 920000 M⁻¹ s⁻¹
t/2-diss [5]: 8 min
Ka [6]: 2.2e+08 M⁻¹
Kd [6]: 4500 pM
koff [6]: 0.006 s⁻¹
kon [6]: 1.3e+06 M⁻¹ s⁻¹
t/2-diss [6]: 2 min
koff [7]: 1e-05 s⁻¹
t/2-diss [7]: 1160 min
koff [8]: 1e-05 s⁻¹
t/2-diss [8]: 1160 min
B2: monoclonal antibody M-10.7.9 (antibody, from a related filing, V domains shown)
VH: QVQLQQSGAELVRPGSSVKISCKASGYAFSSYWMNWVKQRPGQGLEWIGQIYPGDGDTNHNGKFKGKATLTADKSSSTVYMQLSSLTSEDSAVYFCARSGDYYGKDYWGQGTTLTVSS
VL: DIVLTQTPPSLPVNMGQKATISYKATKSLLNTDGYTYMHWNQQKPGQPPKLLIYLVSNRESGVPDRFSGSGSGTDFTLNINTVEEEDAATYYCHHSNELPHTFGAGTKLEIK
